Data published in patent US20200040057A1 (IMMATICS BIOTECHNOLOGIES, published 2020).

B1: APGGSSRSSL (peptide)
peptide: APGGSSRSSL
B2: RPGTGQGGL (peptide)
peptide: RPGTGQGGL
B3: VPHTGRYTCL (peptide)
peptide: VPHTGRYTCL
B4: QPQQPGFFL (peptide)
peptide: QPQQPGFFL
B5: RAVPVGSGL (peptide)
peptide: RAVPVGSGL
B6: IPETASVVAI (peptide)
peptide: IPETASVVAI
B7: SPSTSRTPL (peptide)
peptide: SPSTSRTPL
B8: LPWEQNEQV (peptide)
peptide: LPWEQNEQV
B9: LHAMNSLSAM (peptide)
peptide: LHAMNSLSAM
B10: SPVGVGQRL (peptide)
peptide: SPVGVGQRL
B11: RVMLPKAAL (peptide)
peptide: RVMLPKAAL
B12: MPVPGILL (peptide)
peptide: MPVPGILL
B13: IPAPQGAVL (peptide)
peptide: IPAPQGAVL
B14: APADEPRTVL (peptide)
peptide: APADEPRTVL
B15: SPIIHSIL (peptide)
peptide: SPIIHSIL
B16: KIEQIRAVL (peptide)
peptide: KIEQIRAVL
B17: LPMTHRLQL (peptide)
peptide: LPMTHRLQL
B18: KPIRTGISPLAL (peptide)
peptide: KPIRTGISPLAL
B19: SPSLQSSRESL (peptide)
peptide: SPSLQSSRESL
B20: VLPRAGGAFLM (peptide)
peptide: VLPRAGGAFLM
B21: RPTAASQSRAL (peptide)
peptide: RPTAASQSRAL
B22: RITWKGLLL (peptide)
peptide: RITWKGLLL
B23: SSPRGTTSTL (peptide)
peptide: SSPRGTTSTL
B24: HPRAPGEQQRL (peptide)
peptide: HPRAPGEQQRL
B25: AVHEIGHSL (peptide)
peptide: AVHEIGHSL
B26: SPTPVFTTL (peptide)
peptide: SPTPVFTTL
B27: IPIDQILNSF (peptide)
peptide: IPIDQILNSF
B28: RPAPGPAPFV (peptide)
peptide: RPAPGPAPFV
B29: KPYDGIPAS (peptide)
peptide: KPYDGIPAS
B30: FPRKPYEGRV (peptide)
peptide: FPRKPYEGRV
B31: RVLLRWISL (peptide)
peptide: RVLLRWISL
B32: FPNAGPRHLL (peptide)
peptide: FPNAGPRHLL
B33: HPYSDLADVF (peptide)
peptide: HPYSDLADVF
B34: LPYEKVSRL (peptide)
peptide: LPYEKVSRL
B35: QPENSLEGISL (peptide)
peptide: QPENSLEGISL
B36: FAFYGGKSL (peptide)
peptide: FAFYGGKSL
B37: APRPGNWIL (peptide)
peptide: APRPGNWIL
B38: RPFPLALL (peptide)
peptide: RPFPLALL
B39: SPGDKRLAAYL (peptide)
peptide: SPGDKRLAAYL
B40: LPQRPNARL (peptide)
peptide: LPQRPNARL
B41: NPREPEKSL (peptide)
peptide: NPREPEKSL
B42: FPAFLEAM (peptide)
peptide: FPAFLEAM
B43: LIAARGSLVL (peptide)
peptide: LIAARGSLVL
B44: SPRSGVLL (peptide)
peptide: SPRSGVLL
B45: SPRGTTSTL (peptide)
peptide: SPRGTTSTL
B46: LPNTGRIGQL (peptide)
peptide: LPNTGRIGQL
B47: SPSKSLEM (peptide)
peptide: SPSKSLEM
B48: IPDTIASVL (peptide)
peptide: IPDTIASVL
B49: MAYDRFIAI (peptide)
peptide: MAYDRFIAI
B50: WPRLPGAGL (peptide)
peptide: WPRLPGAGL
B51: RPHQKGWLSI (peptide)
peptide: RPHQKGWLSI
B52: TPELKSSIL (peptide)
peptide: TPELKSSIL
B53: TAYPSLRLL (peptide)
peptide: TAYPSLRLL
B54: AASPVGSAL (peptide)
peptide: AASPVGSAL

Molecular target: HLA-B*07 (human)
Assay: UV peptide exchange ELISA; +++ = yield >50

Binder	peptide exchange yield
B1	50 to 75%
B2	50 to 75%
B3	50 to 75%
B4	50 to 75%
B5	50 to 75%
B6	50 to 75%
B7	50 to 75%
B8	50 to 75%
B9	50 to 75%
B10	50 to 75%
B11	50 to 75%
B12	50 to 75%
B13	50 to 75%
B14	50 to 75%
B15	50 to 75%
B16	50 to 75%
B17	50 to 75%
B18	50 to 75%
B19	50 to 75%
B20	50 to 75%
B21	50 to 75%
B22	50 to 75%
B23	50 to 75%
B24	50 to 75%
B25	50 to 75%
B26	50 to 75%
B27	50 to 75%

Binder	peptide exchange yield
B28	50 to 75%
B29	50 to 75%
B30	50 to 75%
B31	50 to 75%
B32	50 to 75%
B33	50 to 75%
B34	50 to 75%
B35	50 to 75%
B36	50 to 75%
B37	50 to 75%
B38	50 to 75%
B39	50 to 75%
B40	50 to 75%
B41	50 to 75%
B42	50 to 75%
B43	50 to 75%
B44	50 to 75%
B45	50 to 75%
B46	50 to 75%
B47	50 to 75%
B48	50 to 75%
B49	50 to 75%
B50	50 to 75%
B51	50 to 75%
B52	50 to 75%
B53	50 to 75%
B54	50 to 75%
